# Patent US9290794B2, “Mutant protease biosensors with enhanced detection characteristics” (PROMEGA CORPORATION, priority 2010, dated 2016)
# B1: CBS-HT: CBS variant 1A5 fused to HaloTag, expressed in wheat germ extract (SEQ ID NOs:71 and 72) (protein)
# chain: MAEIGTGFPFDPHYVEVLGERMHYVDVGPRDGTPVLFLHGNPTSSYVWRNIIPHVAPTHRCIAPDLIGMGKSDKPDLGYFFDDHVRFMDAFIEALGLEEVVLVIHDWGSALGFHWAKRNPERVKGIAFMEFIRPIPTWDEWPEFARETFQAFRTTDVGRKLIIDQNVFIEGTLPMGVVRPLTEVEMDHYREPFLNPVDREPLWRFPNELPIAGEPANIVALVEEYMDWLHQSPVPKLLFWGTPGVLIPPAEAARLAKSLPNCKAVDIGPGLNLLQEDNPDLIGSEIARWLSTLEISGEPTTEDLYFQSDNAIAMPGSTGKIVPLHAVKVVDPTTGKILGPNEPGELYFKGPMIMKGYYNNEEATKAIIDNDGWLRSGDIAYYDNDGHFYIVDRLKSLIKYKGYQVAPAEIEGILLQHPYIVDAGVTGIPDEAAGELPAAGVVVQTGKYLNEQIVQDYVASQVSIAKWLRGGVKFLDEIPKGSTGKIDRKVLRQMLEKHTNGSDEVDGSLKNILYGPEPFYPLEDGTAGEQMFDALSRYAAIPGCIALTNAHTKENVLYEEFLKLSCRLAESFKKYGLKQNDTIAVCSENSLQFFLPVIASLYLGIIVAPVNDKYIERELIHSLGIVKPRIVFCSKNTFQKVLNVKSKLKSIETIIILDLNEDLGGYQCLNNFISQNSDSNLDVKKFKPYSFNRDDQVASIMFSSGTTGLPKGVMLTHKNIVARFSIAKDPTFGNAINPTSAILTVIPFHHGFGMMTTLGYFTCGFRVVLMHTFEEKLFLQSLQDYKVESTLLVPTLMAFLAKSALVEKYDLSHLKEIASGGAPLSKEIGEMVKKRFKLNFVRQGYGLTETTSAVLITPKGV
# B2: TL-CP233-Caspase 8: TL Ppe fragments 233-543 and 4-232 with caspase-8 site linker … (SEQ ID NOs:57 and 58) (protein)
# chain: MTSAILTVIPFHHGFGMMTTLGYFTCGFRVVLMHTFEEKLFLQSLQDYKVESTLLVPTLMAFLAKSALVEKYDLSHLKEIASGGAPLSKEIGEMVKKRFKLNFVRQGYGLTETTSAVLITPKGDAKPGSTGKIVPLHAVKVVDPTTGKILGPNEPGELYFKGPMIMKGYYNNEEATKAIIDNDGWLRSGDIAYYDNDGHFYIVDRLKSLIKYKGYQVAPAEIEGILLQHPYIVDAGVTGIPDEAAGELPAAGVVVQTGKYLNEQIVQDYVASQVSTAKWLRGGVKFLDEIPKGSTGKIDRKVLRQMLEKHTNGSSLETDGSSGDKNILYGPEPFYPLEDGTAGEQMFDALSRYAAIPGCIALTNAHTKENVLYEEFLKLSCRLAESFKKYGLKQNDTIAVCSENSLQFFLPVIASLYLGIIVAPVNDKYIERELIHSLGIVKPRIVFCSKNTFQKVLNVKSKLKSIETIIILDLNEDLGGYQCLNNFISQNSDSNLDVKKFKPYSFNRDDQVASIMFSSGTTGLPKGVMLTHKNIVARFSIAKDPTFGNAINPV
# Tests used:
# [1] = test system: caspase-3; assay: CBS-HT (cell-free expressed) immobilized to HaloLink resin, caspase-3 cleavage reaction; assay type: biochemical
# Protocol: For immobilization to a resin (FIG. 18A), HaloLink resin (25% slurry, Promega Cat. No. G1912) was first equilibrated with HTPB Buffer (50 mM HEPES (pH 7.5), 150 mM NaCl, 1 mM DTT and 0.5 mM EDTA). Resin from one volume of slurry was collected by centrifugation (5 min at 1000×g), and the storage buffer was removed. The resin pellet was re-suspended in 2 volumes of HTPB and mixed. This process was repeated for a total of three HTPB washes. 100 μL of the CBS-HT fusion from Example XI (cell free expression reaction) was mixed with 25 μL washed resin (50% slurry in HTPB) and incubated overnight with mixing at 4° C. Incubation was continued at ambient temperature for 2 hrs. After incubation, the resin was washed to remove un-bound CBS. The resin was split into two 50 μl aliquots, and each aliquot was washed 3 times with HTPB. The final resin pellets were re-suspended in 50 μL HTPB.
# For the CBS caspase-3 cleavage reaction, 20 μl of the washed resin was mixed with 20 μL of either E. coli lysate containing caspase-3 or C(3) Lysis Buffer (as in Example XI) and incubated for 30 min at ambient temperature. 60 μl HEPES pH 7.5 was added to the samples, followed by the addition of 100 μl Bright-Glo Assay Reagent. Luminescence was detected as previously described (Table 8 and FIG. 19).
# [2] = test system: caspase-3; assay: Cell-free (wheat germ) expressed CBS-HT, caspase-3 cleavage reaction, luminescence; assay type: biochemical; settings: WG(HY), MIN. 5
# Protocol: The CBS variant 1A5 was cloned into the vector pFN19K HaloTag® (Promega Cat. No. G1841) to generate a CBS-HaloTag® (CBS-HT) fusion protein (SEQ ID NOs:71 and 72). 20 μl (8 μg) of the CBS-HT vector was added to 30 μl TnT® SP6 High-Yield Wheat Germ Expression System (Promega Cat. No. L3261) and incubated at 25° C. for 90 min.
# For the CBS-HT caspase-3 cleavage reaction, one volume of the expression reaction was incubated with an equal volume of either an E. coli lysate containing caspase-3 or C(3) Lysis Buffer (0.8× FastBreak (Promega Cat. No. V857A), 10 mM DTT, 0.1% CHAPS, 0.8 mg/mL Lysozyme, 3 U/μL RQ1 DNase (Promega Cat. No. M610A)) and incubated for 60 min at room temperature. The E. coli lysate containing caspase-3 was prepared from KRX cells overexpressing recombinant caspase-3. Briefly, KRX cells were transformed with pTS1k:caspase-3(T/S). A starter culture (50 mL, LB Broth) was inoculated from a single colony and grown for 17-22 hrs at 37° C. with shaking (275 rpm). The starter culture was diluted (1:50) into fresh media and growth was continued for an additional 3 hrs. The incubation temperature was then lowered to 25° C. and, after 15 min, expression of caspase-3 was initiated by addition of rhamnose (0.2% final concentration). After 2 hr, cells were collected by centrifugation, re-suspended in 50 mL C(3) Lysis Buffer and incubated at ambient temperature (i.e. 22-24° C.) for 10 min. The lysate was clarified by centrifugation (20,000×g for 20 min at 4° C.) and used as the Caspase-3 source.
# Cleavage of CBS-HT by Caspase-3 was detected in two different ways: by SDS-PAGE analysis and luminescence detection. […] After electrophoresis, CA-TAM labeled species were detected by fluorescent imaging (ex:532, Em:580; FIG. 17). For detection via luminescence, 40 μL of the cleavage reaction samples were added to 60 μL buffer (50 mM HEPES (pH 7.5) and 100 μL Bright-Glo assay reagent. Luminescence was detected as previously described (Table 7).
# [3] = test system: caspase-3; assay: CBS-HT (cell-free expressed) immobilized to HaloTag ligand microtiter plate, caspase-3 cleavage; assay type: biochemical
# Protocol: For immobilization to a plate (FIG. 18B), a microtiter plate was prepared containing HaloTag® ligand for immobilizing the CBS-HT fusion protein. Briefly, bicarbonate buffer pH 8.5 (100 μL), containing amine-PEG 2000-Cl alkane HaloTag® ligand (0.25 mM (final concentration; PBI 3961 and methoxy-PEG-NH2 (0.75 mM final concentration) were added to wells of a NHS microtiter plate and incubated for 1 hr at room temperature. The wells were then washed 3 times with PBS containing 0.05% Tween-20. After washing, 50 mM ethanolamine was added, and the plates were incubated for 30 min at room temperature and washed again 3 times with PBS containing 0.05% Tween-20. The plate was then stored at 4° C. with PBS containing 0.05% Tween-20 in each well. For the assay, the wells were washed 3 times with 200 μl HPTB. 50 μl CBS-HT cell-free expression reaction (Example XI) was added to the wells, and incubated overnight at 4° C. Following incubation, the plate was washed 3 times with 200 μl PBSI (1×PBS with 0.05% IGEPAL). 100 μL E. coli lysate containing caspase-3 or C(3) lysis buffer (described above) were added and the plate was incubated for 60 min with mixing at room temperature. The wells were then washed with 100 μl PBSI. 100 μL HEPES pH 7.5 and 100 μl Bright-Glo Assay Reagent were added and luminescence was detected as previously described (Table 9).
# [4] = test system: Caspase-8; assay: Caspase-8 biosensors transfected into HeLa cells, induction with TRAIL; assay type: cell-based; settings: 1 μg/mL TRAIL, 37° C.
# Description: To evaluate whether the mutant thermostable luciferase biosensors of the present invention can be used to detect Caspase-8 activity in cells, biosensors were generated that contained the Caspase-8 cleavage site, LETDG (SEQ ID NO:15). Two different biosensors, TL-CP358-Caspase-8 and TL-CP233-Caspase-8 were used. As controls, the firefly (Photinus pyralis; Ppy) luciferase biosensors FF-CP234-Caspase-8 (M/Ppy residues 234-544/LETDG/Ppy residues 4-230/V), FF-CP359-Caspase-8 (M/Ppy residues 359-544/LETDG/Ppy residues 4-355/V), and TL-CP358-DEVD.
# All biosensors were transfected into HeLa cells. Cells were plated at a (10,000/well) into a 96-well tissue culture plate. […]
# After overnight incubation, the media was removed from the cells and replaced with CO2 Independent Media (Invitrogen Cat. No. 18045088) with 2 mM Luciferin EF (Promega Cat. No. E6551). Cells were pre-equilibrated with Luciferin EF for 2 hrs in a Varioskan luminometer with bioluminescence readings taken every 20 min. […] The cells were again incubated at 37° C. in a Varioskan luminometer for 500+ min with bioluminescence measured every 20 min.
# FIGS. 5 and 7 identify the kinetic profiles of Caspase 8 activation by TRAIL over time at 37° C. […] Fold induction of activation was calculated by dividing the signal of samples with TRAIL over the signals without trail at a given time point. […]
molecule,measurement,setting,value
B1,BASAL luminescence,[1]; sample AS,"29,553"
same,INDUCED luminescence,[1]; sample AS,"5,162,108"
same,RESPONSE,[1]; sample AS,175
same,BASAL luminescence,[1]; sample FT,"3,170"
same,INDUCED luminescence,[1]; sample FT,"232,117"
same,RESPONSE,[1]; sample FT,73
same,BASAL luminescence,[1]; sample RESIN,"11,219"
same,INDUCED luminescence,[1]; sample RESIN,"1,635,259"
same,RESPONSE,[1]; sample RESIN,146
same,RESPONSE,[2],441
same,BASAL luminescence,[2]; C(3) Lysis Buffer,"10,494"
same,INDUCED luminescence,[2]; E. coli lysate containing caspase-3,"4,626,173"
same,BASAL luminescence,[3]; MIN. 0,66
same,INDUCED luminescence,[3]; MIN. 0,"1,226"
same,RESPONSE,[3]; MIN. 0,19
same,BASAL luminescence,[3]; MIN. 1,16
same,INDUCED luminescence,[3]; MIN. 1,"1,636"
same,RESPONSE,[3]; MIN. 1,102
same,BASAL luminescence,[3]; MIN. 2,106
same,INDUCED luminescence,[3]; MIN. 2,"2,267"
same,RESPONSE,[3]; MIN. 2,21
same,BASAL luminescence,[3]; MIN. 3,66
same,INDUCED luminescence,[3]; MIN. 3,"2,147"
same,RESPONSE,[3]; MIN. 3,33
same,BASAL luminescence,[3]; MIN. 4,126
same,INDUCED luminescence,[3]; MIN. 4,"2,297"
same,RESPONSE,[3]; MIN. 4,18
same,BASAL luminescence,[3]; MIN. 5,126
same,INDUCED luminescence,[3]; MIN. 5,"2,857"
same,RESPONSE,[3]; MIN. 5,23
same,BASAL luminescence,[3]; MIN. 6,76
same,INDUCED luminescence,[3]; MIN. 6,"3,107"
same,RESPONSE,[3]; MIN. 6,41
same,BASAL luminescence,[3]; MIN. 7,56
same,INDUCED luminescence,[3]; MIN. 7,"3,377"
same,RESPONSE,[3]; MIN. 7,60
same,BASAL luminescence,[3]; MIN. 8,136
same,INDUCED luminescence,[3]; MIN. 8,"3,037"
same,RESPONSE,[3]; MIN. 8,22
same,BASAL luminescence,[3]; MIN. 9,116
same,INDUCED luminescence,[3]; MIN. 9,"3,667"
same,RESPONSE,[3]; MIN. 9,32
B2,detection of Caspase 8 activation by TRAIL,[4],can detect Caspase 8 activation by TRAIL
